Experimental findings from publication PMC6280533, “Construction and characterization of a synthetic Baculovirus-inducible 39K promoter” are described below.

Data set [1] deals with T1, IE-1 (IE1-His) (Bombyx mori nucleopolyhedrovirus (BmNPV), UniProt P33245 1-587).
T1 sequence: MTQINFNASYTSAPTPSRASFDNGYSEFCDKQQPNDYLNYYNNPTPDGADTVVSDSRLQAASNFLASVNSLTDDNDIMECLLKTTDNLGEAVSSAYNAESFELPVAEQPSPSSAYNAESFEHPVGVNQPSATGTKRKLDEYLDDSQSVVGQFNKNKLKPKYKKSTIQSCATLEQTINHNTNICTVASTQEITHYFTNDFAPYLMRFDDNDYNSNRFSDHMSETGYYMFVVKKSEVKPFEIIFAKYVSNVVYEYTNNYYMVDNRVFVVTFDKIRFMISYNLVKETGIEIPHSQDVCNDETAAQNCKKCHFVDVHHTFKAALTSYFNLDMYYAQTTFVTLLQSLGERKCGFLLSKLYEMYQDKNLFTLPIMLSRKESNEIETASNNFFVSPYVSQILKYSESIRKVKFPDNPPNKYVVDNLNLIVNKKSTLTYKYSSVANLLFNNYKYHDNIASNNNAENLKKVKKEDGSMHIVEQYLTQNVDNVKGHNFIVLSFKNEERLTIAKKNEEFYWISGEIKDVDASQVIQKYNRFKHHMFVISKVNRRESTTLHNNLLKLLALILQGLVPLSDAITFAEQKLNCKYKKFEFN
The data set is described as follows: EMSA. The following applies: protein: recombinant; tags: His (pCold-I); chain copies: 2; label: 5' biotin; blunt.

Data set [2] has as its target T1, IE-1 (IE1-His). The experiment in a line: EMSA; probe 1, 2, 6 pmol/L; IE-1 0.8 ug/L (so in the source). The following applies: protein: recombinant; tags: His (pCold-I); chain copies: 2; label: 5' biotin; blunt. A general note: Mobility shift assays separate free from complexed probe on a gel.

B1: 39K probe 1 (-486 to -532) (dsDNA)
DNA 1: AGTATTTGATATACGTAGGCGTCGTGCGCGGCAACTTGATTGACGTG
DNA 2: CACGTCAATCAAGTTGCCGCGCACGACGCCTACGTATATCAAATACT
On to B1, for which the binding result in the data set with IE-1 (IE1-His) [1] is “no binding”.

B2: 39K probe 2 (-386 to -431) (dsDNA)
DNA 1: GACTATCGTATAATATTAAAACCGCGACGCTTCAATTGCGAAATAA
DNA 2: TTATTTCGCAATTGAAGCGTCGCGGTTTTAATATTATACGATAGTC
As to B2, the binding result with IE-1 (IE1-His) [1] is recorded as “no binding”.

B3: 39K probe 4 (+2 to +47) (dsDNA)
DNA 1: AGTAATTACCGACAAATGTTCTAAGCGTAAGGTGTGTCTTCATCAC
DNA 2: GTGATGAAGACACACCTTACGCTTAGAACATTTGTCGGTAATTACT
In the case of B3, the binding result with IE-1 (IE1-His) [1] is recorded as “no binding”.

B4: 39K probe 3 (-310 to -355) (dsDNA)
DNA 1: AATATTTTAATTATATGAACGACAAACAATTGATCACGTACGATTA
DNA 2: TAATCGTACGTGATCAATTGTTTGTCGTTCATATAATTAAAATATT
As for B4, the binding result with IE-1 (IE1-His) [2] is recorded as “binds”.
